Molecular target: T1, M. tuberculosis elongation factor Ts (EF-Ts) with an N-terminal 6xHis-tag and linker (M. tuberculosis, UniProt P9WNM1 1-271)
T1 sequence: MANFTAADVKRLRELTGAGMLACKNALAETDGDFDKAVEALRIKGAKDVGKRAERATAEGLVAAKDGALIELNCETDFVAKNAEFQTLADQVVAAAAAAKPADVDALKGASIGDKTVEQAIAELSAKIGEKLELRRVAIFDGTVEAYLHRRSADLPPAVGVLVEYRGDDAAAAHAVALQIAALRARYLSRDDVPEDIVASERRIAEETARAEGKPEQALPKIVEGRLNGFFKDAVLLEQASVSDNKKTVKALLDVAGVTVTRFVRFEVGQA
Assay: affinity purification with mass spectrometry
Settings: partners not purified

B1: M. tuberculosis elongation factor Tu (EF-Tu) (natural protein)
chain: not shown
- stoichiometry N: 1

— PMC5001721, “Reconstitution of Protein Translation of Mycobacterium Reveals Functional Conservation and Divergence with the Gram-Negative Bacterium Escherichia coli” (PLoS ONE, 2016)
